# Measured values published in patent US20150079112A1 (SAMSUNG ELECTRONICS, published 2015).
# T1: Ang2 protein (R&D systems) (human, UniProt O15123 19-496)
# T1 sequence: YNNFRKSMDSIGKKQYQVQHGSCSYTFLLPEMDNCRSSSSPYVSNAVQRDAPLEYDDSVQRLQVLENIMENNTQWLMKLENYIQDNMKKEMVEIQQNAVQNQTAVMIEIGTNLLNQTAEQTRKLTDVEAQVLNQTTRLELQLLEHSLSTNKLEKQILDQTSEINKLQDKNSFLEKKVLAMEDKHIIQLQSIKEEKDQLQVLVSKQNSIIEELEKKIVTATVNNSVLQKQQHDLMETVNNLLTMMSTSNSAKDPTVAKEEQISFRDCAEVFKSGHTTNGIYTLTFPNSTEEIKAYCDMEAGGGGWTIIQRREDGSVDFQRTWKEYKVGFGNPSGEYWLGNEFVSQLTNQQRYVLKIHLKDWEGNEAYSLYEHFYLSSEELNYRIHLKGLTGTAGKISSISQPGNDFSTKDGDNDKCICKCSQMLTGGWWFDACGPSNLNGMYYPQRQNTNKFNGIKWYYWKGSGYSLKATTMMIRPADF
# T2: mutant Ang2 protein, D448 substituted with alanine, FLAG-tagged at its N-terminal (human, UniProt O15123 19-496, limits assumed)
# T2 sequence: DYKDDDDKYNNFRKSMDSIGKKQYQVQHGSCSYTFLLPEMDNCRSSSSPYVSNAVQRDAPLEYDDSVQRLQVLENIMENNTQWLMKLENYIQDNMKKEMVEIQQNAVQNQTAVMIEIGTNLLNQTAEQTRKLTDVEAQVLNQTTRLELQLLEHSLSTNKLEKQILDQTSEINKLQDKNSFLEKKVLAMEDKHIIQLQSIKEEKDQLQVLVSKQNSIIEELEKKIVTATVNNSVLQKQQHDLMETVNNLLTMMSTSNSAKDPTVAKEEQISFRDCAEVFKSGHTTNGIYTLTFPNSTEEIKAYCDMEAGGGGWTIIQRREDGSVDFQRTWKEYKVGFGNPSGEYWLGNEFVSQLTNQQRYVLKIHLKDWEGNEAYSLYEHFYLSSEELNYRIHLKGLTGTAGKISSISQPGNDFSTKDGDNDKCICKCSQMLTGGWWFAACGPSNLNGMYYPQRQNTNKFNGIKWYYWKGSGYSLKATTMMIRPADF
# T3: mutant Ang2 protein, S417 substituted with alanine, FLAG-tagged at its N-terminal (human, UniProt O15123 19-496, limits assumed)
# T3 sequence: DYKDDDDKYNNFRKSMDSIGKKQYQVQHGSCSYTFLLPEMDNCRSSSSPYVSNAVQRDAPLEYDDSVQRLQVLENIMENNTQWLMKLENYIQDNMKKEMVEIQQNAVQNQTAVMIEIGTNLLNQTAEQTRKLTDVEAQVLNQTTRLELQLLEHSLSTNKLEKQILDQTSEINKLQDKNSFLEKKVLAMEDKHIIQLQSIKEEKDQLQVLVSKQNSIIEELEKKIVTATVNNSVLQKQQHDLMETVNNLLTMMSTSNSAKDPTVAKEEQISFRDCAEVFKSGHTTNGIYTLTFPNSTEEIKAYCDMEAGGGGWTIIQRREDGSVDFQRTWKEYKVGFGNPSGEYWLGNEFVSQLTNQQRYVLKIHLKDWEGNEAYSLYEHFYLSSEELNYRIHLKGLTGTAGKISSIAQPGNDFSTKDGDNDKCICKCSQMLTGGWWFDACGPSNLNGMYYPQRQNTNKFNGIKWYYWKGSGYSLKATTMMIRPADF
# Experiments:
# [1] = biological target: T1, Ang2 protein (R&D systems); assay: cell-based or functional assay
# [2] = biological target: T2, mutant Ang2 protein, D448 substituted …; assay: ELISA, coated antibody 1000 nM, 250 ng FLAG-tagged mutant Ang2, anti-FLAG-HRP, OD450
# Method in brief: (§1)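 Antibody coated at 1000 nM and BSA-blocked; 250 ng N-terminally FLAG-tagged alanine-mutant Ang2 bound 2 h at room temperature, detected with HRP-anti-FLAG (1 h) and TMB, OD450. Binding expressed as % of that to native Ang2.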
# [3] = biological target: T3, mutant Ang2 protein, S417 substituted …; assay: as above
# Method in brief: as §1
# hTie2-Fc (R&D Systems) = biological target: T4, hTie2-Fc (R&D Systems) (human, UniProt Q02763 23-745); assay: ELISA: coated Tie2-Fc, 10D6 2 µg/ml without Ang2, detected with anti-mouse IgG-HRP (OD450)
# T4 construct: also called hTie-2/Fc fusion protein; not shown: Fc of human IgG1
# Description: A 96-well MaxiSorp™ flat-bottom plate (Nunc) was coated with 4 ug/ml of Tie2-Fc (R&D systems) or BSA (Sigma). Then, the plate was washed five times with 0.05% (v/v) Tween-20-containing PBS (Phosphate Buffer Saline) and blocked with 1% (v/v) BSA (Bovine serum albumin; Sigma)-containing PBS at a room temperature for 2 hours. […] After that, an anti-mouse IgG antibody (Sigma) conjugated with HRP diluted in 1% (v/v) BSA-containing PBS at a ratio of 1:5,000 (v/v) was added in an amount of 100 ul to each well to react at a room temperature for 1 hour and then, the plate was washed five times with PBST. Lastly, 100 ul (microliter) of TMB substrate (Cell Signaling) was added to each well of the plate to induce color development for 3 min. and then, the reaction was ceased by the addition of 100 ul of Stop solution (Cell Signaling) and OD450 values were measured on a plate reader (Molecular Devices).
# T4 sequence (Q02763 23-745 limits assumed): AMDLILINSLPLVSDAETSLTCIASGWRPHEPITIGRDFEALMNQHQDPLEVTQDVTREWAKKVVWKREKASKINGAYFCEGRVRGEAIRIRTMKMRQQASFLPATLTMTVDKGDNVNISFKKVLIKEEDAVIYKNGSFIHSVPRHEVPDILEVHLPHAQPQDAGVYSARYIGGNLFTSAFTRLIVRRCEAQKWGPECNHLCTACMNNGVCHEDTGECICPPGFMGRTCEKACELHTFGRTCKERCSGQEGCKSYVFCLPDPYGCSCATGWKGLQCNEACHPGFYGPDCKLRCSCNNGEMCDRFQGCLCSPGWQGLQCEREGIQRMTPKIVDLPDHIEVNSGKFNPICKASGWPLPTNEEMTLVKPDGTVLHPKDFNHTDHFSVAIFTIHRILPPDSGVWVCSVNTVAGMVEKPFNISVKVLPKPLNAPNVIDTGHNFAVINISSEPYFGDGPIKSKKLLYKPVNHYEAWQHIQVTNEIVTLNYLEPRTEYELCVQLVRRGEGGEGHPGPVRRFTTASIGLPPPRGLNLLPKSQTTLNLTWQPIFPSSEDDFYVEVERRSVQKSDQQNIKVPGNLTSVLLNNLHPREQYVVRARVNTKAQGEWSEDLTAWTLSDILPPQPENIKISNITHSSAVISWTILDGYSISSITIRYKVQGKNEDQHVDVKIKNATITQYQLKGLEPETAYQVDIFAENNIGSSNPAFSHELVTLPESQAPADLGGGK
binder,measurement,setting,value
"SAIT-ANG2-AB-m10D6 (antibody, V domains shown, also called antibody 10D6; anti-Ang2 antibody (10D6)) VH: DVQLQESGPGLVKPSQSLSLTCTVTGYSITSDYAWNWIRQFPGNKLEWMGYINYSGNTDYNPSLKSRSSITRDTSKNQFFLQLNSVTTGDTATYYCARGNFEGAMDYWGQGTSVTVSS VL: SIVMTQTPKFLLVSAGDRVTITCKASQSVSNDVAWYQQKPGQSPKLLIYYASNRYPGVPDRFTGSGYGTDFTFTISTVQAEDLAVYFCQQDYSSPWTFGGGTKLEIK",Tie2 phosphorylation effect relative to control antibody RG,[1],~8.6 fold
same,"Tie2 phosphorylation level (pTyr/Tie2 ratio), HUVEC, 60 nM antibody with Ang2",[1],180%
same,binding affinity (%) with mutant Ang2 against the binding affinity with the native Ang2,[2],105%
same,binding affinity (%) with mutant Ang2 against the binding affinity with the native Ang2,[3],101%
same,binding result,hTie2-Fc (R&D Systems),no binding (tested: 2 µg/ml)
